Experimental data: the Human Domainome abundance scans (Beltran et al. 2025)

B1: Tumor protein 63, residues 545 to 610; numbered along this chain, Q9H3D4 (parent)
chain: TDCSIVSFLARLGCSSCLDYFTTQGLTTIYQIEHYSMDDLASLKIPEQFRHAIWKGILDHRQLHEF

Variants of: B1
Test: abundance fitness (aPCA) (normalised: wild type 0, dead -1); higher = more abundant; growth selection in yeast, the domain comes from the species named
Settings: Homo sapiens

Abundance fitness: each site, then its substitutions
A52: P -0.043, L -0.024, V -0.013, F -0.049, T -0.037, I -0.062, N -0.092, G -0.086, D -0.064, Y -0.116, W -0.076, M -0.101, S -0.016, K -0.023, C -0.015, E -0.024, H -0.068
I45: R -1.02, H -0.925, V -0.021, P -0.865, Q -0.965, K -0.72, S -1.04, L -0.034, T -0.588, M -0.143, Y -0.821, F -0.358, G -0.913, W -0.967, E -0.676, D -0.982, A -0.721, C -0.283
Q48: T -0.023, L -0.063, P -0.006, V -0.027, C -0.064, R -0.013, S -0.038, D -0.04, K -0.015, I -0.052, N -0.006, A -0.024, E 0.035, Y -0.078, W -0.203, H -0.005, G -0.025, M -0.028
Q62: L -0.039, G -0.023, S -0.025, Y -0.083, D -0.03, H -0.011, V -0.051, K -0.021, W -0.144, T -0.023, E 0.013, A -0.011, N -0.056, I -0.151, R 0.006
G56: K -0.447, L -0.77, H -0.363, M -0.546, E -0.239, Q -0.307, R -0.452, Y -0.505, V -0.676, N -0.361, C -0.472, A -0.075, S -0.142, F -0.649, T -0.541, I -0.831, D -0.446, W -0.811
D59: L -0.074, K -0.06, W -0.161, Q -0.027, H -0.024, N -0.079, E -0.006, I -0.084, F -0.09, Y -0.054, T -0.111, V -0.034, R -0.087, G -0.02, M -0.066, C -0.058, A -0.009
R61: P -0.022, W -0.105, H -0.1, T -0.055, E -0.047, S -0.039, I -0.062, D -0.121, F -0.037, C -0.073, N -0.05, K 0.058, V -0.067, M -0.077, A -0.033
W54: S -0.055, H -0.301, A -0.065, I -0.028, G -0.248, V -0.078, R -0.133, C -0.363, T -0.102, N -0.03, L 0.031
L63: F -0.105, A 0.029, D 0.004, E 0.009, C -0.01
K55: E -0.018, N -0.038, L -0.06, R -0.059, S -0.057, M -0.048, W -0.192, C -0.041, A -0.074, Q -0.038, D -0.072, G -0.057, H -0.106, F -0.212, T -0.087, P -0.792, V -0.071
I53: F -0.921, H -0.887, R -0.945, S -0.918, Y -0.821, E -0.893, G -0.979, M -0.403, Q -0.99, D -0.907, N -0.783, P -1.07, C -0.528, K -0.25, W -0.62, T -0.787, L -0.117
P46: G -0.289, Q -0.387, W -1.1, R -0.66, E -0.155, I -1.01, K -0.384, M -0.928, N -0.396, Y -1.12, S -0.351, A -0.406, T -0.46, F -0.913, H -0.531, V -0.922, L -0.976, D -0.283
I57: G -0.781, Y -0.918, T -0.323, M -0.105, W -0.895, L -0.025, N -0.799, E -0.887, K -0.51, P -1.04, A -0.369, C -0.107, D -0.962, H -0.899, Q -0.611, F -0.203, V -0.082
R50: A -0.092, D -0.712, W -0.128, C -0.052, G -0.274, H -0.03, F -0.149, M -0.002, P -0.848, E -0.159, S -0.102, Q -0.067, Y -0.174, L -0.036, T -0.056, K -0.067
L58: V -0.006, N -0.039, M -0.06, R 0.006, G 0.002, P -0.272, Y 0.026, C 0.01, S -0.007, A -0.01, E -0.015, K -0.001, T 0.002, I 0, F -0.034
H60: L -0.018, V 0, R 0.012, S -0.077, P -0.38, Q -0.02, I -0.045, F -0.003, A -0.019, M -0.011, C -0.004, T -0.027, G -0.092, D -0.13, K -0.064, E -0.077, Y -0.014, W -0.017, N -0.015
H51: M -0.009, K -0.012, A -0.022, D -0.028, F -0.052, S 0.013, I -0.079, C -0.034, Q 0.005, Y -0.075, W -0.058, L -0.029, V -0.034, G -0.023, P -0.031, T 0.003, E 0.005, R -0.031
L43: Y -0.526, T -0.396, F -0.245, H -0.296, V -0.134, K -0.283, R -0.304, G -0.702, N -0.447, M -0.105, P -0.564, S -0.386
K44: L -0.076, A -0.037, Q -0.014, R -0.014, W -0.154, N -0.021, D -0.011, F -0.081, I -0.4, G 0.013, Y -0.083, C -0.052, H -0.075, V -0.23, S -0.015, E 0.002, T -0.061, M -0.039
F49: H -0.004, W -0.052, M -0.014, G -0.174, P -0.061, I -0.168, E -0.007, N -0.058, C -0.047, D -0.021, T -0.127, K -0.027, Q -0.023, V -0.113, S -0.026, L -0.059
E47: W -0.08, A -0.014, T -0.036, L -0.022, H -0.067, I -0.045, N -0.011, P -0.009, D 0.012, M -0.04, Y -0.002, R -0.054, F -0.127, Q -0.004, C -0.076, G 0.041, S -0.02
